Assay results from patent US12427163B2, “Anti-VTCN1 antibodies and antibody drug conjugates” (Bluefin BioMedicine, Inc., priority 2017, dated 2025).

B1: 7C8: fully human VTCN1 antibody; VH SEQ ID NO: 212, VL SEQ ID NO: 216 (antibody, V domains shown)
VH: QVQLQESGPGLVKPSETLSLTCAVSGYSISSGYYWGWIRQPPGKGLEWIGSIYHSGTTYYNPSLKSRVTISVDTSKNQFSLKLNSVTAADTAVYYCATYSSGWYFYFDYWGQGTLVTVSS
VL: DIQLTQSPSFLSASVGDRVTITCRASQGISSYLAWYQQKPGKAPKLLIYVASTLQSGVPSRFSGSGSGTEFTLTISSLQPEDFATYYCQQLNSYPITFGQGTRLEIK
B2: IFNγ: cytokine added to human monocyte cultures (protein, UniProt P01579 24-161, looked up)
Interferon gamma: QDPYVKEAENLKKYFNAGHSDVADNGTLFLGILKNWKEESDRKIMQSQIVSFYFKLFKNFKDDQSIQKSVETIKEDMNVKFFNSNKKKRDDFEKLTNYSVTDLNVQRKAIHELIQVMAELSPAAKTGKRKRSQMLFRG

How the values were obtained:
293-VTCN1 cells = target: T1, 293-VTCN1 cells (Homo sapiens, UniProt Q7Z7D3); assay: Flow cytometry binding to 293-VTCN1 cells (full length)
T1 construct: 293-VTCN1 (full length); expressed in transfected cells; host or cells: HEK293
T1 sequence (Q7Z7D3 25-282): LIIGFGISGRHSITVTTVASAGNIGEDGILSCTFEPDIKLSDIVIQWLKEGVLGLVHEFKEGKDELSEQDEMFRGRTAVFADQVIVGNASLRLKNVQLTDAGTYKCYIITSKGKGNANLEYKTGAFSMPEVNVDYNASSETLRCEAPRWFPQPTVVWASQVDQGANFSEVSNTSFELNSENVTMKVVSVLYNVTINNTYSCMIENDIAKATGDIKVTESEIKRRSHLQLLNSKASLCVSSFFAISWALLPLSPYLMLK
Procedure: For each hybridoma, unique recombinant heavy chains were paired with unique recombinant light chains. These plasmid pairs were transfected into CHO cells in 24-well plates. Twelve days later conditioned medium from each pairing was subjected to concentration determination by OCTET™ and screened by Flow cytometric analysis for binding to 293-VTCN1 cells.
(§1) Briefly, the 7C8 antibody was incubated with 293 cells, 293-VTCN1 (full length), 293-VTCN1-IgV domain, 293-VTCN1-IgC domain cell lines for 30 min at 4° C., unbound antibody was washed away, cells were then incubated with anti-human-Alexa488 conjugate, and analyzed by flow cytometry.
Antibody concentration was determined by OCTET™ using protein G biosensor. 0.05 μg/ml, 0.1 μg/ml, 0.5 μg/ml, 1 μg/ml, 5 μg/ml, 10 μg/ml antibodies were incubated with live cells for 30 min. on ice, unbound antibodies were washed off, and a conjugated anti-mouse 2nd antibody was added to the wells for 15 min. Cells were washed twice with flow buffer and analyzed using MACSQuant Analyzer 10 flow cytometer (Miltenyi Biotec, Bergisch Gladbach, Germany). Results from flow cytometry assays indicate that mouse anti-VTCN1 antibodies are capable of binding to 293-VTCN1 cells and MX-1 cells.

MX-1 cells = assay: Flow cytometry binding to MX-1 cells; design: species or system human; conditions: TNBC cell line
Procedure: (§2) Supernatant from hybridoma wells, containing VTCN1 specific antibodies, were re-tested on human breast cell lines SKBR3 and ZR-75-1. 70% confluent MX-1 cells in 10 cm dish were gently washed with 1× cold PBS once, 7 ml cold flow buffer (1×PBS, 0.5% BSA, 2 mM EDTA) was then added, the cells were gently scraped in to flow buffer using rubber cell lifter, pipet up down with 10 ml transfer pipets gently to resuspend the cells. The cells were pelleted by centrifuging them for 5 minutes at 1200 rpm at room temperature. The cell pellets were resuspended in cold flow buffer, the cells were counted and the concentration was adjusted to 1×10^6 cells per 1 mL. Using a multichannel pipette, 200 μL was collected and transferred to 96-V bottom polypropylene plates and spun at 1250 rpm for 5 min at 4° C. to pellet the cells. The cell pellets were resuspended with hybridoma supernatant diluted 2-fold with cold flow buffer and incubated at 4° C. for 30 min. After incubation, cells were washed 2× with flow buffer and then labeled with anti-rat Alexa 647 secondary antibodies for 30 min at 4° C. Unbound secondary antibodies were removed by washing the cells 2× with flow buffer. […]
Antibody concentration was determined by OCTET™ using protein G biosensor. […] Cells were washed twice with flow buffer and analyzed using MACSQuant Analyzer 10 flow cytometer (Miltenyi Biotec, Bergisch Gladbach, Germany). […]

VTCN1 IgC domain = target: T2, VTCN1 IgC domain (Homo sapiens, UniProt Q7Z7D3); assay: Flow cytometry binding to 293-VTCN1-IgC domain cells; conditions: IgC domain only
T2 construct: one with an IgV domain only and one with an IgC domain only; expressed in transfected cells
T2 sequence (Q7Z7D3 153-241 limits assumed): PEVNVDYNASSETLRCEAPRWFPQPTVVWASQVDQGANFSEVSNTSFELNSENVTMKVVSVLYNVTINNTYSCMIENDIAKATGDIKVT
Text: (§3) Two constructs were made, one with an IgV domain only and one with an IgC domain only. 293 cells were transfected with VTCN1-IgV and VTCN1-IgC constructs, and stable cell lines of 293 expressing VTCN1-IgV or VTCN1-IgC domains were made. Expression constructs also made to express VTCN1 (monkey, 99% identical to human VTCN1) and VTCN1 (mouse, 88% identical to human VTCN1), stable 293-VTCN1 (monkey), and 293-VTCN1 (mouse) cell lines made by transfecting these constructs.
as §1
(§4) It was also assessed whether these antibodies bind to IgV or IgC domain of VTCN1 protein, using 293-VTCN1-IgV domain expressing cells and 293-VTCN1-IgC domain expressing cells using FACS analysis, as in Example 3.

VTCN1 IgV domain = target: T3, VTCN1 IgV domain (Homo sapiens, UniProt Q7Z7D3); assay: Flow cytometry binding to 293-VTCN1-IgV domain cells; conditions: IgV domain only
T3 construct: one with an IgV domain only and one with an IgC domain only; expressed in transfected cells
T3 sequence (Q7Z7D3 35-146 limits assumed): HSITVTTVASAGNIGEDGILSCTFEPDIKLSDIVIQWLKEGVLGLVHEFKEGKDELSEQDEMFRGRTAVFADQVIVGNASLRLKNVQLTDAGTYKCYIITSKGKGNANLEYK
Text: as §3, §1, §4

SKBR3 cells = assay: Flow cytometry binding to SKBR3 cells (hybridoma screening); design: species or system human
Procedure: as §2, with “buffer. Cells were then resuspended in 200 μL of flow buffer containing PI to identify dead cells and remove from analysis.” for “buffer.”

293-VTCN1 (mouse) = target: T4, 293-VTCN1 (mouse) (Mus musculus, UniProt Q7TSP5); assay: Flow cytometry binding to 293-VTCN1 (mouse) cells
T4 construct: expressed in transfected cells
T4 sequence (Q7TSP5 25-257): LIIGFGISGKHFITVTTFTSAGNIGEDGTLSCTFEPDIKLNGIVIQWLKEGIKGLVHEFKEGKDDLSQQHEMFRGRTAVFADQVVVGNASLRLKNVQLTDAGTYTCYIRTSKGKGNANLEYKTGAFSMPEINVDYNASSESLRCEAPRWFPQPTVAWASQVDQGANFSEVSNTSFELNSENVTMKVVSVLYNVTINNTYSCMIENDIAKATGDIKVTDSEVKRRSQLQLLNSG
Text: as §3
(§5) Flow cytometry analysis was also performed with 7C8 binding to 293-VTCN1 (monkey) and 293-VTCN1 (mouse).

293-VTCN1 (monkey) = assay: Flow cytometry binding to 293-VTCN1 (monkey) cells; design: species or system cynomolgus monkey
Text: as §3, §5

ZR-75-1 cells = assay: Flow cytometry binding to ZR-75-1 cells; design: species or system human
Procedure: as §2, with “buffer. Cells were then resuspended in 200 μL of flow buffer containing PI to identify dead cells and remove from analysis.” for “buffer.”

human monocytes = assay: Cytokine treatment of monocytes, expression of VTCN1, PD-L1, CD80 by flow cytometry; assay type: cell-based; conditions: 24, 48, or 73 hours
Procedure: VTCN1 is expressed in monocytes and macrophages in a tumor microenviroment, the expression induced by cytokines in tumor microenviroment. VTCN1 positive macrophages inhibit T cell activation. Monocytes from healthy donors were treated with IFNγ and IL-6 to assess VTCN1 expression. Monocytes were enriched from fresh PBMC from healthy donor using a monocyte enrichment kit from Stemcell Technologies, and the purity of the obtained monocytes is greater than 95%. Monocytes were cultured in 24 well plate with different concentration of INFγ or LI-6 for 24, 48, or 73 hours, expression of VTCN1, PD-L1, and CD80 was assessed by flow cytometry. […] CD80 was expressed at low level in monocytes, and is not very responsive to cytokine treatment.

| Molecule | binding to 293-VTCN1 cells (full length VTCN1) (293-VTCN1 cells) | binding to MX-1 cells (MX-1 cells) | binding to IgC domain of VTCN1 (VTCN1 IgC domain) | binding to IgV domain of VTCN1 (VTCN1 IgV domain) | binding to SKBR3 cells (SKBR3 cells) | cross reactivity with mouse VTCN1 (293-VTCN1 (mouse)) | cross reactivity with monkey VTCN1 (293-VTCN1 (monkey)) | binding to ZR-75-1 cells (ZR-75-1 cells) | VTCN1 and PD-L1 expression in monocytes (human monocytes) |
| --- | --- | --- | --- | --- | --- | --- | --- | --- | --- |
| B1 | binds to full length VTCN1 | binds | does not bind | does not bind | binds | cross reacts | cross reacts | binds |  |
| B2 |  |  |  |  |  |  |  |  | VTCN1 and PD-L1 expression was induced |
